Legend:
UL9CTD wild type = UL9CTD wild type (HSV-1, UniProt P10193 536-851); assay: MST; MST: 50 mM Tris pH 8.0, 150 mM NaCl, 1 mM DTT, 0.05% Tween-20, 40 nM FAM-dsDNA, 25 C; EMSA: 50 mM Tris pH 8.0, 50 mM NaCl, 1 mM DTT, 40 nM FAM-dsDNA, 0.5-3.5 uM protein, 4 C; cryo-EM complex: 20 mM HEPES pH 7.0, 150 mM NaCl, 1 mM DTT; conditions: protein: recombinant; tags: N-terminal 8xHis; blunt
[1] = molecular target: T1, full-length HSV-1 ICP8 with an N-terminal 8xHis tag (HSV-1, UniProt P04296 1-1196); assay: pull-down; Strep-tag pull-down: 50 μg Strep-tagged UL9^CTD or full-length UL9 as bait with an equal amount of ICP8; 50 mM Tris pH 8.0, 150 mM NaCl, 1 mM DTT, 0.05% Tween-20; 1 h at 4 °C; SDS-PAGE with Coomassie; conditions: both partners purified
T1 construct: also called His-tagged ICP8; source: insect cells (baculovirus, as UL9^FL), purified (Ni-NTA); not shown: 8xHis, N-terminal, kept
T1 sequence: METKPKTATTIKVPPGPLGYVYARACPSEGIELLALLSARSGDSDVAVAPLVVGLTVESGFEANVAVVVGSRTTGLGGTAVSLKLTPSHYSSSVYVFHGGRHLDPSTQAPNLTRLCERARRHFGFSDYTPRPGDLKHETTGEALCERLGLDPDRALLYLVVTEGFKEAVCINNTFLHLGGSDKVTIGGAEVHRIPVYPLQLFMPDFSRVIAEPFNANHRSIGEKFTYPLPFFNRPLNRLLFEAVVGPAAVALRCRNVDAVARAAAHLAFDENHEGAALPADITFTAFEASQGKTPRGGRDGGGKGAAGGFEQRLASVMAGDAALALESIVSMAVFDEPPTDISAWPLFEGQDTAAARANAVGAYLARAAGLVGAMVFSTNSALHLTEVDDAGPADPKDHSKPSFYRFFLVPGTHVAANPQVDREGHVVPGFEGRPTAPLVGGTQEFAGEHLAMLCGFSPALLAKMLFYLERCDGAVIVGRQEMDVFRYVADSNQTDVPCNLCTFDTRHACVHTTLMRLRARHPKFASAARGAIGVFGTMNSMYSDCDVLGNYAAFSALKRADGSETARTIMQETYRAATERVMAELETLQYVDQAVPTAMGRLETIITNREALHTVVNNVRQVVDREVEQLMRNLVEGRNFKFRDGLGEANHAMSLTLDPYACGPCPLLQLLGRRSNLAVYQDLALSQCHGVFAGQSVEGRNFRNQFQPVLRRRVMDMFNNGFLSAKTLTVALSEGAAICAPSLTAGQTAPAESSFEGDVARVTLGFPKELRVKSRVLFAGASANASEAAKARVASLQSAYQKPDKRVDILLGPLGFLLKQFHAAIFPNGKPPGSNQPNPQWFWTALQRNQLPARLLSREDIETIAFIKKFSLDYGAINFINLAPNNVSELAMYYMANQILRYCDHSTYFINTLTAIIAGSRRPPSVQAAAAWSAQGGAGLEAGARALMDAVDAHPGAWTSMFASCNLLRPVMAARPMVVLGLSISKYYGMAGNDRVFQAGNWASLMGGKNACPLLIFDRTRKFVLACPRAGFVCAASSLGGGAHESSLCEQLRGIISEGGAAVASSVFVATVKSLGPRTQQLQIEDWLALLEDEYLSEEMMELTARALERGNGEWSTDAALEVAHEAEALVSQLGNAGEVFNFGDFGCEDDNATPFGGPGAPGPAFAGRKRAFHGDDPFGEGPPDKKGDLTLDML

[2] = molecular target: T1, full-length HSV-1 ICP8 with an …; assay: pull-down; GST pull-down: 50 μg GST-tagged UL9^CTD variants or C-tail peptides on GST beads with an equal amount of ICP8; 50 mM Tris pH 8.0, 150 mM NaCl, 1 mM DTT, 0.05% Tween-20; 1 h at 4 °C; SDS-PAGE with Coomassie; conditions: both partners purified

B1: 15-bp oriS Box I dsDNA (dsDNA)
DNA 1: GCGTTCGCACTTCGT
DNA 2: ACGAAGTGCGAACGC
Kd (UL9CTD wild type): 2230 ± 420 nM

B2: Strep-tagged UL9 C-terminal domain (residues 536-851) (domain or fragment)
chain: PEASLPAQAAETEEVGLFVEKYLRSDVAPAEIVALMRNLNSLMGRTRFIYLALLEACLRVPMATRSSAIFRRIYDHYATGVIPTINVTGELELVALPPTLNVTPVWELLCLCSTMAARLHWDSAAGGSGRTFGPDDVLDLLTPHYDRYMQLVFELGHCNVTDGLLLSEEAVKRVADALSGCPPRGSVSETDHAVALFKIIWGELFGVQMAKSTQTFPGAGRVKNLTKQTIVGLLDAHHIDHSACRTHRQLYALLMAHKREFAGARFKLRVPAWGRCLRTHSSSANPNADIILEAALSELPTEAWPMMQGAVNFSTL
notes: HSV-1 UL9 C-terminal domain, residues 536-851; As the His-tagged construct, with the N-terminal 8xHis tag replaced by a Strep-tag; also called UL9^CTD; Strep-tagged UL9^CTD; source: E. coli BL21 (DE3), purified (Strep-Tactin XT, Superdex 75); not shown: Strep-tag, N-terminal, kept
binding result [1]: binds

B3: GST-tagged UL9 C-terminal domain (residues 536-851) (domain or fragment)
chain: B2 chain
notes: HSV-1 UL9 C-terminal domain, residues 536-851; Cloned into pGEX-6P-1; also called UL9^CTD; source: E. coli BL21 (DE3), purified (Glutathione-Sepharose 4B); not shown: GST, N-terminal, kept
binding result [2]: binds
